Laboratory results from US20060034835A1 (Genentech, published 2006).
Blank lines part the entries; values can stand above or below the molecule they belong to.

Assays:
[1] = target: human CD20 (human) (UniProt P11836); experiment: cell-based or functional assay
[2] = target: T1, human CD20 (human, UniProt P11836 1-297); experiment: cell-based ELISA on WIL2-S cells
T1 construct: whole, on cells; also called CD20 antigen; Bp35
T1 sequence (looked up): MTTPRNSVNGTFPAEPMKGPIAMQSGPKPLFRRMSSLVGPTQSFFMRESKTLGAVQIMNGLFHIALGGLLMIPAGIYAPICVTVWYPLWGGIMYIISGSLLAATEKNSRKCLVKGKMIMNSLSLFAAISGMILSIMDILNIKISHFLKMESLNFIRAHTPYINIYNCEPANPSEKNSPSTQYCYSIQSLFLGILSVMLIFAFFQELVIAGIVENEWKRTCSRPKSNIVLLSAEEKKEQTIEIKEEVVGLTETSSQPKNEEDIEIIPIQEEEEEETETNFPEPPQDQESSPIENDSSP
Method: To measure relative binding affinities to the CD20 antigen, a cell-based ELISA assay was developed. […] The cells were washed with PBS containing 1% FBS (assay buffer) and seeded at 250-300,000 cell/well in 96-well round bottom plates (Nunc, Roskilde, Denmark). […] The plates were buried in ice and incubated for 45 min. To remove the unbound antibody, 0.1 mL assay buffer were added to the wells. Plates were centrifuged and supernatants were removed. Cells were washed two more times with 0.2 mL assay buffer. Antibody bound to the plates was detected by adding peroxidase conjugated goat anti-human Fc antibody (Jackson ImmunoResearch, West Grove, Pa.) to the plates. After a 45 min incubation, cells were washed as described before. TMB substrate (3,3′,5,5′-tetramethyl benzidine; Kirkegaard & Perry Laboratories, Gaithersburg, Md.) was added to the plates. The reaction was stopped by adding 1 M phosphoric acid. Titration curves were fit with a four-parameter nonlinear regression curve-fitting program (KaleidaGraph, Synergy software, Reading, Pa.). The absorbance at the midpoint of the titration curve (mid-OD) and its corresponding concentration of the standard were determined. Then the concentration of each variant at this mid-OD was determined, and the concentration of the standard was divided by that of each variant.

ADCC: EC50(variant)/EC50(2H7.v16) [1]: 5.3 | ADCC: EC50(variant)/EC50(Rituxan) [1]: 1 | CDC: EC50(variant)/EC50(Rituxan) [1]: 1 | apoptosis of Ramos cells: fraction of Annexin V stained cells at 10 nM crosslinked antibody [1]: 16.5% | apoptosis of Ramos cells: fraction of doubly labeled cells at 10 nM crosslinked antibody [1]: 38% | apoptosis of Ramos cells: live cells counted per 10 s at 10 nM crosslinked antibody (cells per 10 s) [1]: 3100
Molecule: Rituxan (rituximab) (antibody)

Relative binding [2]: 0.99 ratio to 2H7.v16
B1: 2H7 version 166 (antibody, human IgG1, kappa, V domains shown)
VH: EVQLVESGGGLVQPGGSLRLSCAASGYTFTSYNMHWVRQAPGKGLEWVGAIYPGNGDTSYNQKFKGRFTISVDKSKNTLYLQMNSLRAEDTAVYYCARVVYYGGDWYFDVWGQGTLVTVSS
VL: DIQMTQSPSSLSASVGDRVTITCRASSSVSYMHWYQQKPGKAPKPLIYAPSNLASGVPSRFSGSGSGTDFTLTISSLQPEDFATYYCQQWSFNPPTFGQGTKVEIKR
notes: IgG1; Y100b is deleted (written as a substitution with an empty new residue)
